According to patent US20220323495A1 (NATIONAL RESEARCH COUNCIL OF CANADA, published 2022):

T1: human EGFRvIII amino acid residues 15 to 37, yeast-displayed (human, not fully specified)
T1 construct: also called EGFRvIII 15-37 fragment; aa 15-37
T1 peptide: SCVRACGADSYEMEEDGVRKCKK

T2: EGFRvIII amino acid residues 15 to 37 with Met27 to Ala mutation, yeast-displayed (human, not fully specified)
T2 construct: The entry already carries the mutation
T2 peptide: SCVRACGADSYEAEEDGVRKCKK

T3: EGFRvIII amino acid residues 15 to 37 with Arg33 to Ala mutation, yeast-displayed (human, not fully specified)
T3 construct: The entry already carries the mutation
T3 peptide: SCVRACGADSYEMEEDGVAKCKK

T4: EGFRvIII amino acid residues 15 to 37 with Val32 to Ala mutation, yeast-displayed (human, not fully specified)
T4 construct: The entry already carries the mutation
T4 peptide: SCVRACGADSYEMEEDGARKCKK


Tests used:
[1] = biological target: T5, recombinant human EGFRvIII protein, denatured (human, UniProt P00533 298-623); test: ELISA on coated denatured recombinant antigen; Exp 1, mAb supernatant
T5 construct: Same protein as m9 after denaturation (95 °C for 5 min in PBS with 40 mM DTT); also called EGFRvIII Denatured
Protocol: (§1) Pre- and post-immune sera titers of animals were assessed by ELISA on recombinant EGFRvIII protein. Unless otherwise stated, all incubations were performed at room temperature. Briefly, half-area 96-well plates (Costar #3690) were coated with 25 μl per well of immunogen at 5 μg/ml in PBS and incubated overnight at 4° C. Microplates were washed three times in PBS and blocked for 30 min with PBS containing 1% bovine serum albumin (BSA, Sigma Cat#A7030). Blocking buffer was removed and 25 μl of serial dilutions of sera samples were added. After a 2-h incubation, microplates were washed 4 times with PBS-TWEEN™ 20 0.05% and 25 μl of a 1/5,000 dilution of alkaline phosphatase conjugated F(ab′)′₂ goat anti-mouse IgG (H+L, #115-056-062, Jackson Immunoresearch, Cedarlane, Burlington, ON) in blocking buffer was added. After a 1-h incubation, microplates were washed 4 times and 25 μl of p-nitrophenyl phosphate (pNPP) substrate (Sigma-Aldrich Canada Co., Oakville, ON) at 1 mg/ml in carbonate buffer at pH 9.6 was added and further incubated for 30 min. Absorbance was read at 405 nm using a SpectraMax 340 PC plate reader (Molecular Devices, Sunnyvale, Calif.).
(§2) To evaluate if monoclonal antibodies bind to a conformational epitope, an ELISA analysis on native and denatured recombinant human wild-type EGFR and EGFRvIII proteins were performed. […] Antigens at 1-2 mg/ml were denatured by incubation at 95° C. for 5 min in PBS containing DTT at 40 mM final concentration. They were then incubated on ice for 5 min and diluted at their final coating concentration for ELISA purpose.
(§3) mAbs were purified using HiTrap ProteinG HP 1 mL columns GE Healthcare cat no. 17-0404-01 and desalted using Zeba-spin desalting columns 5 mL (Pierce) pre-equilibrated in PBS and filter sterilized through […] membrane (Millipore). The final concentration of the antibody solutions was determined using a Nano-drop 2000 (ThermoScientific), using IgG as sample type. ELISA was performed as described above (serum titer determination) using 25 μl of mAb supernatant (Exp 1) or purified mAb at 1 μg/ml (Exp 2).

[2] = biological target: T6, recombinant human wild-type EGFR protein, denatured (human, UniProt P00533 25-645); test: as above
T6 construct: Same protein as m11 after denaturation (95 °C for 5 min in PBS with 40 mM DTT); also called EGFRwt Denatured
Protocol: as §1, §2, §3

[3] = biological target: T7, recombinant human wild-type EGFR protein, native (human, UniProt P00533 25-645); test: ELISA on coated native recombinant antigen; Exp 1, mAb supernatant
T7 construct: Recombinant protein used as ELISA coat; also called EGFRwt; wt EGFR
Protocol: as §1, §2, §3

[4] = biological target: T8, recombinant human EGFRvIII protein, native (human, UniProt P00533 298-623); test: as above
T8 construct: Recombinant extracellular domain used as immunogen and ELISA coat; also called EGFRvIII Native
Protocol: as §1, §2, §3

[5] = biological target: T5, recombinant human EGFRvIII protein, …; test: ELISA on coated denatured recombinant antigen; Exp 2, purified mAb 1 µg/ml
Protocol: as §1, §2, §3

[6] = biological target: T6, recombinant human wild-type EGFR …; test: as above
Protocol: as §1, §2, §3

[7] = biological target: T7, recombinant human wild-type EGFR …; test: ELISA on coated native recombinant antigen; Exp 2, purified mAb 1 µg/ml
Protocol: as §1, §2, §3

[8] = biological target: T8, recombinant human EGFRvIII protein, …; test: as above
Protocol: as §1, §2, §3

[9] = biological target: T1, human EGFRvIII amino acid residues 15 …; test: yeast display; smallest EGFRvIII fragment the antibody was able to bind
Description: (§4) Assessment of the binding of anti-EGFRvIII monoclonal antibodies to the fusion proteins expressed on yeast cell surface was done by flow cytometry analysis. Yeast cells were labeled with both the anti-EGFRvIII monoclonal antibody and chicken anti-Myc antibody the latter being used to monitor the level of expression of the fusion protein. Following a wash step, binding of the primary antibodies is probed by a two-color indirect fluorescence labeling using a specific mouse and chicken secondary antibodies for each of the primary antibody respectively.

[10] = biological target: T2, EGFRvIII amino acid residues 15 to 37 …; test: flow cytometry on yeast displaying the Ala-mutated 15-37 fragment; normalized to Myc-tag; wild-type fragment = 100%
Description: as §4
(§5) To further characterize mAb epitopes within the EGFRvIII 15-37 region, an alanine scan of this region was performed, and modified fragments were expressed at the surface of the yeast. […] The resulting DNAs were expressed at the surface of the yeast and each anti-EGFRvIII mAbs was tested on the corresponding yeast mutant strain by flow cytometry analysis. The original Ala19 and Ala22 were not mutated. Thus, this assay determined the contribution of each amino acid(s) in mAb binding in comparison to the original wild-type fragment (SEQ ID NO:5) which is attributed the value of 100%.

[11] = biological target: T3, EGFRvIII amino acid residues 15 to 37 …; test: as above
Description: as §4, §5

[12] = biological target: T4, EGFRvIII amino acid residues 15 to 37 …; test: as above
Description: as §4, §5

| Binder | ELISA absorbance (405 nm) [1] [A405] | ELISA absorbance (405 nm) [2] [A405] | ELISA absorbance (405 nm) [3] [A405] | ELISA absorbance (405 nm) [4] [A405] | ELISA absorbance (405 nm) [5] [A405] | ELISA absorbance (405 nm) [6] [A405] | ELISA absorbance (405 nm) [7] [A405] | ELISA absorbance (405 nm) [8] [A405] | binding result [9] | % of binding compared to the wild-type sequence [10] [%] | % of binding compared to the wild-type sequence [11] [%] | % of binding compared to the wild-type sequence [12] [%] |
| --- | --- | --- | --- | --- | --- | --- | --- | --- | --- | --- | --- | --- |
| F265-5B7 anti-EGFRvIII monoclonal antibody (antibody, V domains shown, Mouse hybridoma IgG, tested as supernatant or Protein G purified mAb; also called 5B7-2) VH: QIQLVQSGPELKKPGETVMISCKASGYSFTNYGMNWVKQAPEKDLKWMGWINTYTGESRYVDEFKGRFAFSLETSVSIVYLKINNLKNEDMATYFCARGPNFDVWGTGTTVTVSS VL: not shown | 1.67 | 0.046 | 0.008 | 1.14 | 0.623 | 0 | 0.002 | 0.874 | binds | 111 | 95.8 | 101 |
| F269-3D12 anti-EGFRvIII monoclonal antibody (antibody, V domains shown, Mouse hybridoma IgG, tested as supernatant or Protein G purified mAb; also called 3D12-2) VH: EVQLQQSGPELVKPGSSVRISCKASGYTFTDYNMDWVKQSHGKSLEWIGTINPNNGGTSYNQKFKGKATLTVDKSSSTAYMELRSLTSEDSAVYYCARVRQLGLWFAYWGQGTLVTVSA VL: EIVLTQSPALMAASPGEKVTITCSVSSSISSSNLHWYQQKSETSPKPWIYGTSNLASGVPVRFSGSGSGTSYSLTISSMEAEDAATYYCQQWSSYPLTFGSGTKLEIK | 1.86 | 0.045 | 0.095 | 1.17 | 0.517 | 0.001 | 0.011 | 1.12 | binds | 75.3 | 22.1 | 93.8 |
